Usually stoichiometry N stands for a count of units in the complex or per binding partner.

“And” between values parts separate entries of the source, which are not always exact repeats. Equal values may be shown once.

This data set deals with the molecule itself. In words: SEC; oligomeric forms of the separately purified proteins; Superdex 200 Increase 10/300 GL, 20 mM HEPES pH 7.5, 150 mM NaCl, 1 mM DTT (Fig. S1, A and B). On the technique in general: In gel filtration, larger molecules generally elute earlier.

B1: Get3(D57N), Saccharomyces cerevisiae (enzyme, S. cerevisiae, UniProt Q12154 1-354, looked up)
chain: MDLTVEPNLHSLITSTTHKWIFVGGKGGVGKTTSSCSIAIQMALSQPNKQFLLISTNPAHNLSDAFGEKFGKDARKVTGMNNLSCMEIDPSAALKDMNDMAVSRANNNGSDGQGDDLGSLLQGGALADLTGSIPGIDEALSFMEVMKHIKRQEQGEGETFDTVIFDTAPTGHTLRFLQLPNTLSKLLEKFGEITNKLGPMLNSFMGAGNVDISGKLNELKANVETIRQQFTDPDLTTFVCVCISEFLSLYETERLIQELISYDMDVNSIIVNQLLFAENDQEHNCKRCQARWKMQKKYLDQIDELYEDFHVVKMPLCAGEIRGLNNLTKFSQFLNKEYNPITDGKVIYELEDKE
notes: Get3, S. cerevisiae, UniProt Q12154, full length, with D57N; Purified in dimeric and tetrameric forms; the dimer was used to form the complex with Get4/5; ATP and MgCl2 were present in the complex, cryo-EM and MST samples; also called D57N variant; ATPase-deficient D57N variant; source: E. coli Rosetta (DE3), purified (Ni-NTA, SEC)
B1: the “stoichiometry N” value is 2 and 4.

The record behind these values is article PMC12506534 (The Journal of Biological Chemistry, 2025).
